Consider 21 sequences from a protein production outcome set (Wang et al. 2014).

The nature of this data set: label from the status in PepcDB records.
Regarding “MNSLSVIKPNNAMPMTAEYRQSIRTALKTSLYPGASDTSVDMVLAYCQAADLDPMTKPVHIVPMWIPEKKVDGRVMSSAGMRDVIMPGIELYRTKAHRTGEYAGQDEAVFGDTVCETLGGVQIRYPSWCRIAVYRMVAGERVRFAATVYWLEAYATARKDSPAPNSMWQKRPFGQLEKCAEALALRKAFPEAVGAQPTAEEMDAGRHTIEGETIHVAPIPVNKDIRDISGPYPQEEFEKNFPKWCDLIESGKTTADRIITMLHSKGKGQLSLEQLTAIRACAEDTSAEPVPTDNTPQESNTTDTEENT”, the protein production entry is “not failed”.

As to “MLFISATNTNAGKTTCARLLAQYCNACGVKTILLKPIETGVNDAINHSSDAHLFLQDNRLLDRSLTLKDISFYRYHKVSAPLIAQQEEDPNAPIDTDNLTQRLHNFTKTYDLVIVEGAGGLCVPITLEENMLDFALKLKAKMLLISHDNLGLINDCLLNDFLLKSHQLDYKIAINLKGNNTAFHSISLPYIELFNTRSNNPIVIFQQSLKVLMSFALK”, the protein production entry was “not failed”.

As to “MCDRHQKLIRATDKPNFFGIDHYGFPEAGEHPADPPGYYPEYFSSERFQRLGYHVEELRGGFYWVTSGGYDAAFVVTSDGVVAIDAPPTIGENMLAAIEDVTDKPVTHLIYSHWHTDHIGAASVFGPNVEIVAHDITKELLERFPDPNRPVPTVTFDKDHLLVVGGVTLELSYKGENHCPGNIFIYAPAQKVLTVIDIVSPGSATFMHCDASQNITGWYEAQKQLMEYEFDFLVAGHHMKYGTPETVAASIEYFQDVLDGAQAAVDRFSRSDALVSILEGAGWDQVFSGTENWINSMANFATKYVLEKKSSNGQLWSERLAGVTTQTKYHAYTVLESIRLERPRPNYRLRGENPPPFLT”, the protein production entry is reported as “failed”.

On to “MAGTIAIKNGYVFDPLNEINGEKMDIFIRDGKVVKELSASEMKTSRVIDASGMTVMPGGVDSHSHVAGAKVNAGRSMRPEDHYKANLKKTPLTHSGSGYTVPSVYKQGYDYAAMGYTTVFEAAVPPLEARHTHEEMRATPLLDMGGYLVLGNNFFLMRYLRDGDMEKAAAYVAWMMKTHKTYGIKCVNPAGVENWAWGKNVSTLDETNIHFEITPREVIKGLTEVNETLGMPMPVHLHANNLGHPGCYAITKDSLKIPDGVKTKQNMAVEWAETKMDLSRDRSVYLTHLMFNSFAGTTWGDCESGVKDIADYINNKDHVVIDSGCTPFGEATVMTGDGPAIHDLYTLTGNKWSNTDVEMECGSGVLPFTYLKSNPVHSLQWAMGLECLLLIKDPWKTIMTTDSPNGGPFTKYPEVMTWIMSEAFRKQTFSECHKWANDRSELGGINRELSLYDLAILTRANPAKTIGMAHRKGSLGVGADGDVTVYNINPQQLDANNYEALLRTFRKAEYTVKGGEIVAVKGEIVSLPEKRTYYSEVHVENEREKEMLVDVKEWFRYYTLGFANYSTPEKYLANPTPIQVNSER”, for which the protein production entry was “failed”.

On to “MLMNLPEILKNQKARARKFKPVKMSKRTELWYRQQLKQFVKMMTNDVERALQQPQGSFFMDDAKGFQAISAKALMKVLEKYEKSDRTSQAENIANGFVSRGDAQNHAEVSTNLKNQTGIDLSAYLRNSPNITEKVNALTAGNIQLIKSIRSQYLDKVQNAVMQAMVRGSLNKDLAAQIKDLGKTTEKRAMFIARDQSSKLNAALTQARHEEVGIKKYMWSASLDERVRESHAEKDGQIFEYANPPADTDHPGHDFNCRCVQIPVLDNNEQIVKNSPIVSQQEKQQMRSEWSDDFPDTIIDRKLGDATSHPLYENAKKGSIEDAYQLAKDLVTDDAVNKLKQLVGNKNAILIPVHAEEAVGQNMIPVAIATVLSKKLHIPVDLSIVQATKVSRTGGDGWHRLVYSPAFDGIVPKDKYAIILDDTQTQGGTLASLKGYIIKEKLLHLML”, for which the protein production result is reported as “failed”.

On to “MQDELVILSSIASIMVAIIVLILFYIEKIRTYVGVFFVYFSLTMMIAMFVGASIYLLYPSRVSLAIAFGINTFIMIPLIAYFLLKIAKLANTPFRGERTHVVIFSILLVLNEILMGTTFGIAQFGFSRFSNLYYSLYFSINSYWFFYPMMAEMLALYLLHYLKGSINRELFPLIGLATFPPTAFDYQEWFYSALIFSLAFSILGSILSKRLWRYVYLMLILSELILLINAIPYDIAIAISMILYYYQSLLPLRR”, for which the protein production result was “failed”.

Turning to “MLRSTVIVTAHRRKAFIKDAIESVMENSLKPTEIIVVKNFKDYQIDSFLETYHVKNIYTDDETLGGKISLGIYQSSGDILFFLDDDDLFSKDKIREVIYKFSKYDIGFYHNAQEVIHNKLTGSNLSTDNQRFMYYTSIDTRRLKELLYKFKAGFNGSSIVISRDLAMRCVDLLKNVNISVDTFLLFCAVENNLPIMIDFRKLTYYRIIMSQNSNTEVNDKLFKMLYEDALYFKQIFSSKALRDFIEMSIIQHDFLYKIISKKEISKRDALISMVKMLRYSLKYPNKWNFFLQGLSLLSVFSAEKSRSLYLKKVRSNSMLSILEHHHHHH”, the protein production result is on record as “not failed”.

For “MKRAYVLLIGLSMLLISLIVPFPLALSFVILAGLFIAHFSKMEEKEVNMIITATVSLFIGLLGGLLGSMIHHNISSTWTLLSAHGGLFLIALIGYFFMVLILMTLGSMIDKVISKARSKSL”, the protein production entry was “failed”.

“MKIKKNMIKGILLTTIVSFLAKIAADYLPSLGGEAIAMLLGILIGNTVFKDEKWMPGIKWAEKFPIEIGIALMGLTVTLRTISSLKIQGVIFILFQMMATILFVLWVGRRFIKVPSESAMLMASGNAVCGSSAIAAVAPAIRASDDQRRTAVATVSLSGVVLLFLLPVIGPNIFHGNNLLIGALIGGTVQSVGQVVGTASLVNQAVVTYATLFKMLRVILLSVVVFVFARFADRTRADEIKTDSKKVAVPWFVIVFIIFVFINSFFNLSNTVNTGAKSIANFFGIVNLAGIGLNLKWQTVKNSGQKFMIYGLVTVCFQILFAVLMINVLFG”: the protein production entry is listed as “failed”.

As to “MNKRCEEVLRRYFAEVPFIIEKACELAESMLGEGSHGLSHTIRVLDLALQIGRVEGANLEVLALAAILHDIARPLEDKGRIKDHAQEGARIVRSFLSKLRYPHVDEVAHAIEAHRFSTNIEPRTLEAKILSDADKIDALGAIGIARVFMYAGEKGRSIEDSIKHFEEKILRLKDLMYTETGKRIAQERHKIVEEFVNILKKELILEHHHHHH”, the protein production result is on record as “not failed”.

As to “MRRSPWRIAYTTKPADTAVPARHPSMAHIFFAASIQRHIATPEREVDARTLGEALEAVFAAQPRLRGYILDDQGALRKHLAVFVDGQPVRDRQHLSDALGENSRVYVIQALTGG”, the protein production result is given as “failed”.

Take “MPMSQSTFTILLGGELSLTERLRDAIEDSRFIAADGGMRHAAALGITPELWVGDFDSTPADLADAFPDVPKQPYPAAKAATDGEIAVAEAIARGARRLILAGALGGERSDHALQHLLSAVSLAEEGFDLLLTSGKEEAVPLVAGTIELDLPKGSLFSVPGFSELRGLAIENARYPLADFHLPFGSSRTISNVAEGKVRFSLRSGRAIVLARPYDLSGV”: the protein production entry is given as “failed”.

“MKRVVEAWDRFQIPLYITALIAGALVGLQWPGSTGGFESAINPALMALLYATFLGIPITRIGAALKDLRFLIVLMSVNFVAVPLVAFALSRFIAGDEALLIGFLLVILAPCIDYVIVFAGLARAAQDKLLAATPILMLVQILLIPVFLAVFVGSDALGSISFGPFVEAFFLLILIPLVAAAGTQQVARKWQVGRTIMAAAEAIMVPLMMLTLFAVIASQVEAVSGQFTDIATVVPLYVAFLMVMIPIGGGISKLGGLGFKEQRAIVFSGATRNSLVVLPLALALPAGLEIAAVVVVTQTLVELIGMVVYVRIIPLIFHEKQTYRKLSGIGES”: the protein production result is given as “failed”.

As for “MFLSDPLPAGGDPVTRLTRYVTRELLPPLLAGTLLFTAILSFGYFFISSQWLSGVPVSLIARWIGYQLPDTLVKVLPMAVVLMTVVAFGRMNTERELVAVQAGGIGLGRVTRPAAVVGLLVTALSVWLSLWVAPRANVETRGLYWDALTGAGLSQLVGKTVDLGQGLTLAMQGYDAGARQMQGVRVEKWDKDNFRQGMVVFADAGKFEGNQLSLTGYQVYRVDYAAAAALSGVADNDPAAFREAVQKVFPLVQVPEDRNAALNLDTGLSRKQTLAQYADAIGADAEGWPELITKLTAPGVPQSERDAARVNLNRKLALPFANLVLVLAALPFALRFGRTLGVSLGVALVIAVAYYLLFSVGLTLAGLLPGLPELGVWLANIVFALGGLWLLRRA”, the protein production entry is reported as “failed”.

For the sequence “MTKSHSQDQESTLLRLEHAQAILQRDAALAHIEHMRRSRSWRLTRPLRMLMQLLRHGVINDESEYPTHLPSLVQPLPASIPLEPDIVEDSTSGSAAQHFDLLCFANIDWSARFQRPQQLMTQFAIQGYRVFYIILSPLPAAERPYTAHPVAPGVFEITLRGHARQDYYATCITEGNLRANAEALQALVSDYRIKTAVSVVHLPYWTRLALHLRKAYGWPVQYDCMDEWQDFPNIGQPLLAQEQVLVEQADLVTVTASVLYDKWASTSRRCQLVRNGVDFDFFARCCTPNTLLEELQGPIIGFYGALAEWVDFELVAAIARQRPEWNLVLIGDVFVRDLAGLDRLPNVHLLGRKPYSQMPQYLYHFDVCIIPFRLYNVTHAVDPVKFYEFISAGKPVVAVPLLEMQIYEPYLYFADGPSAFVTQIERALGETDLQRWDQRLALARENDWRQRFEDTRDALVELFPKVSVIIVTYNNVQLTRGCIDSLLRNCAYPNLQLIIVDNASQDSTRNYLRYLARSEPNVSIVLNEQNLGFAAANNQGLRLAQGHYLVLLNNDTVVPKGWLAPLLRHLDDPEVGLVGPTTNAVGNEARVSIDYQDLDDMEDFADRRASQYRGRCFDIPMLAMFCVAMRREVLDQVGWLDEAFGIGMFEDDDYSRRVQAAGLRTVCAEDSYIHHYGQASFKALIASGEYQRLWDKNQAYFESKWGPWQPHRQARRRANADATKMKLTD”, the protein production entry is given as “failed”.

As to “MLTGLKIAVIGGDARQLEIIRKLTEQQADIYLVGFDQLDHGFTGAVKCNIDEIPFQQIDSIILPVSATTGEGVVSTVFSNEEVVLKQDHLDRTPAHCVIFSGISNAYLENIAAQAKRKLVKLFERDDIAIYNSIPTVEGTIMLAIQHTDYTIHGSQVAVLGLGRTGMTIARTFAALGANVKVGARSSAHLARITEMGLVPFHTDELKEHVKDIDICINTIPSMILNQTVLSSMTPKTLILDLASRPGGTDFKYAEKQGIKALLAPGLPGIVAPKTAGQILANVLSKLLAEIQAEEGK”, the protein production entry is recorded as “failed”.

As for “MFQPHLPVRLPCYDLAPITSFTLGRSLRLRTSGTPGFHGLTGGVYKARERIHRAMADARLLANPASRSRVADFDPN”, the protein production entry was “failed”.

Take “MSLEEWIKADSLEKADEYHKRYNYAVTNPVRRKILRMLDKGRSEEEIMQTLSLSKKQLDYHLKVLEAGFCIERVGERWVVTDAGKIVDKIRG”: the protein production entry is reported as “not failed”.

As for “TPIINDPETVKLFLLTELQHEEREVFMVLFLDNQHRLIKKERLFLGTIYVSAVYPREIIKEALYCNAAALILAHNHPSGITEPSYSDQLITKKIQDAAELMEIRVLDHLIVGKSDCYSFAENCLL”, the protein production entry is given as “failed”.

As to “MAYTTTVKLDGDTKTYTLSPTVKKYTLMDLGFVKGRSGAFSFERSLDPTSPYQAAFKLKMTVNADLTGFKMTTVTGNGVQRANIFKNDAHPEAVEQLRYILANFIERDILTTD”, the protein production entry was “not failed”.

On to “GSSGSSGPSSPSIDQVEPYSSTAQVQFDEPEATGGVPILKYKAEWRAVGEEVWHSKWYDAKEASMEGIVTIVGLKPETTYAVRLAALNGKGLGEISAASEFKTQPVREPSAPKLEGSGPSSG”, for which the protein production entry is given as “not failed”.
